Measurements reported in US7449563B2, “Methods and compositions for destabilizing microtubules” (Academia Sinica, priority 2003, dated 2008).
No end group written: not given here.

B1: PN2-3: PN2-3 polypeptide with wild-type CPAP sequence, residues 311-422 of SEQ ID NO:1, expressed using pET vectors (protein, listed as Homo sapiens)
chain: QKHDDSSEVANIEERPIKAAIGERKQTFEDYLEEQIQLEEQELKQKQLKEAEGPLPIKAKPKQPFLKRGEGLARFTNAKSKFQKGKESKLVTNQSTSEDQPLFKMDRQQLQR
B2: L353P: PN2-3 polypeptide with L353 mutated to proline (protein, listed as Homo sapiens)
chain: MFLMPTSSELNSGQNFLTQWMTNPSRAGVILNRGFPILEADKEKRAAVDISTSFPIKGTHFSDSFSFINEEDSLLEEQKLESNNPYKPQSDKSETHTAFPCIKKGPQVAACHSAPGHQEENKNDFIPDRASEFKEGAYKDPLFKKLEQLKEVQQKKQEQLKRQQLEQLQRLMEEQEKLLTMVSGQCTLPGLSLLPDDQSQKHRSPGNTTTGERATCCFPSYVYPDPTQEETYPSNILSHEQSNFCRTAHGDFVLTSKRASPNLFSEAQYQEAPVEKNNLKEENRNHPTGESILCWEKVTEQIQEANDKNLQKHDDSSEVANIEERPIKAAIGERKQTFEDYLEEQIQLEEQEPKQKQLKEAEGPLPIKAKPKQPFLKRGEGLARFTNAKSKFQKGKESKLVTNQSTSEDQPLFKMDRQQLQRKTALKNKELCADNPILKKDSKARTKSGSVTLSQKPKMLKCSNRKSLSPSGLKIQTGKKCDGQFRDQIKFENKVTSNNKENVTECPKPCDTGCTGWNKTQGKDRLPLSTGPASRLAAKSPIRETMKESESSLDVSLQKKLETWEREKEKENLELDEFLFLEQAADEISFSSNSSFVLKILERDQQICKGHRMSSTPVKAVPQKTNPADPISHCNRSEDLDHTAREKESECEVAPKQLHSLSSADELREQPCKIRKAVQKSTSENQTEWNARDDEGVPNSDSSTDSEEQLDVTIKPSTEDRERGISSREDSPQVCDDKGPFKDTRTQEDKRRDVDLDLSDKDYSSDESIMESIKHKVSEPSRSSSLSLSKMDFDDERTWTDLEENLCNHDVVLGNESTYGTPQTCYPNNEIGILDKTIKRKIAPVKRGEDLSKSRRSRSPPTSELMMKFFPSLKPKPKSDSHLGNELKLNISQDQPPGDNARSQVLREKIIELETEIEKFKAENASLAKLRIERESALEKLRKEIADFEQQKAKELARIEEFKKEEMRKLQKERKVFEKYTTAARTFPDKKEREEIQTLKQQIADLREDLKRKETKWSSTHSRLRSQIQMLVRENTDLREEIKVMERFRLDAWKRAEAIESSLEVEKKDKLANTSVRFQNSQISSGTQVEKYKKNYLPMQGNPPRRSKSAPPRDLGNLDKGQAASPREPLEPLNFPDPEYKEEEEDQDIQGEISHPDGKVEKVYKNGCRVILFPNGTRKEVSADGKTITVTFFNGDVKQVMPDQRVIYYYAAAQTTHTTYPEGLEVLHFSSGQIEKHYPDGRKEITFPDQTVKNLFPDGQEESIFPDGTIVRVQRDGNKLIEFNNGQRELHTAQFKRREYPDGTVKTVYANGHQETKYRSGRIRVKDKEGNVSMDTEL
B3: GST-PN2: GST fusion polypeptide corresponding to amino acid residues 132-422 of CPAP (protein, UniProt Q9HC77 132-422, looked up, fragment)
chain: EFKEGAYKDPLFKKLEQLKEVQQKKQEQLKRQQLEQLQRLMEEQEKLLTMVSGQCTLPGLSLLPDDQSQKHRSPGNTTTGERATCCFPSYVYPDPTQEETYPSNILSHEQSNFCRTAHGDFVLTSKRASPNLFSEAQYQEAPVEKNNLKEENRNHPTGESILCWEKVTEQIQEANDKNLQKHDDSSEVANIEERPIKAAIGERKQTFEDYLEEQIQLEEQELKQKQLKEAEGPLPIKAKPKQPFLKRGEGLARFTNAKSKFQKGKESKLVTNQSTSEDQPLFKMDRQQLQR
modifications: GST tag
notes: GST fusion polypeptide corresponding to amino acid residues 132-422 of CPAP

Experiments:
[1] = target: T1, microtubule nucleation from purified centrosomes (bovine brain tubulin) (Bos taurus, UniProt P81947+Q6B856); test: In vitro centrosome-dependent microtubule nucleation assay; type: biochemical; conditions: for Inhibition of microtubule nucleation/assembly from purified centrosomes (in words): in vitro; for Effect of synthetic peptide on centrosome-dependent microtubule nucleation (in words): 20 μM or 40 μM peptide
T1 construct: containing 125 μg bovine brain tubulin (Cytoskeleton, Denver, Colo.); purchased Cytoskeleton, Denver, Colo; host or cells: bovine brain (tissue-purified)
Experimental: In vitro Centrosome-Dependant Microtubule Nucleation Assay
Isolation of centrosomes and microtubule nucleation tests were performed as described (Hung et al., 2000). To investigate the effect of different GST-truncated CPAP fusion proteins on microtubule nucleation, purified centrosomes (4 μl per reaction) were pre-incubated with the various truncated GST-CPAP fusion proteins or FPLC purified synthetic peptides for 10 min at 4° C. The reaction mixtures were then incubated in 65 μl RG1 buffer (80 mM PIPES, pH 6.8, 1 mM EGTA, 1 mM MgCl2, and 1 mM GTP) containing 125 μg bovine brain tubulin (Cytoskeleton, Denver, Colo.) for 4 min at 37° C.
Microtubules present in the reaction mixtures were fixed in 200 μl 1% glutaraldehyde in RG1 buffer, sedimented onto acid-treated coverslips, and subjected to immunofluoresence analysis using anti-α-tubulin monoclonal antibodies N356 (Amersham, Piscataway, N.J.) or FITC-conjugated anti-α-tubulin monoclonal antibodies (DM1A-FITC; Sigma, Saint Louis, Mo.). Truncated GST-CPAP proteins were detected using an anti-GST polyclonal antibody (Molecular Probes, Cincinnati, Ohio). The extent of microtubule assembly in each reaction was determined microscopically by comparing the extent of microtubule formation on each coverslip. Decreased microtubule formation in reactions comprising polypeptides derived from CPAP indicated the ability of such polypeptides to inhibit centrosome-dependent microtubule assembly.

HeLa cells = test: Cell-based assay for CPAP activity: microtubule reassembly in cold-treated transfected HeLa cells; parameters: species or system human; conditions: transiently transfected HeLa cells
Experimental: Cell Culture and Transfection
HeLa cells were maintained in DMEM supplemented with 10% fetal bovine serum. cDNA clones encoding different portions of CPAP were subcloned, in an appropriate reading frame, into the CMV promoter-driven EGFP-C1 expression vector (Clontech, Palo Alto, Calif.). Transient transfections were performed using Lipofectamine 2000 (Invitrogen, Carlsbad, Calif.) according to the manufacturer's instructions.
Cold Treatment, Immunofluorescence and Confocal Microscopy
HeLa cells were grown on coverslips for at least 24 hr. Cold treatment was performed by incubating the cells at 4° C. for 1 hr, then replacing the cold medium with medium warmed to 30° C. and incubating the cells for 2 min at 30° C. The cells were then fixed with 1% formaldehyde for 30 min at room temperature.
The fixed cells were incubated in the presence of anti-α-tubulin monoclonal antibodies (N356, Amersham, Piscataway, N.J.) and anti-γ-tubulin polyclonal antibodies (Sigma, Saint Louis, Mo.). Bound anti-α-tubulin monoclonal antibodies (N356) were detected with Alexa 568, a Texas Red-conjugated goat anti-mouse IgG, or Alexa 647, a far-red fluorophore-conjugated goat anti-mouse IgG. Bound anti-γ-tubulin polyclonal antibodies were detected with Alexa 568 (Molecular Probes Inc.). The resulting […] signals were detected using a laser scanning confocal system (MRC 1000, Bio-Rad Laboratories, Hercules, Calif.).
The effect of various polypeptides derived from CPAP was determined by evaluating the amounts of mitotic spindle formation in the transfected cells. Decreased mitotic spindle formation indicated the presence of an activity that inhibited microtubule formation or destabilized microtubules.

T1 sequence (P81947 whole entry): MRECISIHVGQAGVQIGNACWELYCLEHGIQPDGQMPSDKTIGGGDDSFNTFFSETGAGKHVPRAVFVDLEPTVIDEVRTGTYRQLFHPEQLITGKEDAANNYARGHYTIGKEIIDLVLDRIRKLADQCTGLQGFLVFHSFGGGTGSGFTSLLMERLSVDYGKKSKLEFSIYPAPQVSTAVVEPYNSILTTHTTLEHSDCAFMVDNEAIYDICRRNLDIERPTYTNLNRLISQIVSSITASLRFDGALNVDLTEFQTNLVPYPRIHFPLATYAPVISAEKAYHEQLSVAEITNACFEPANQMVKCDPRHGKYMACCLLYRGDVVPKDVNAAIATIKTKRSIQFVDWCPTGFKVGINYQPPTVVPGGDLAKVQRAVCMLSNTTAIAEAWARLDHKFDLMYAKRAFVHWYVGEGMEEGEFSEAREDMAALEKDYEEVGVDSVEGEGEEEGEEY
T1 sequence (Q6B856 whole entry): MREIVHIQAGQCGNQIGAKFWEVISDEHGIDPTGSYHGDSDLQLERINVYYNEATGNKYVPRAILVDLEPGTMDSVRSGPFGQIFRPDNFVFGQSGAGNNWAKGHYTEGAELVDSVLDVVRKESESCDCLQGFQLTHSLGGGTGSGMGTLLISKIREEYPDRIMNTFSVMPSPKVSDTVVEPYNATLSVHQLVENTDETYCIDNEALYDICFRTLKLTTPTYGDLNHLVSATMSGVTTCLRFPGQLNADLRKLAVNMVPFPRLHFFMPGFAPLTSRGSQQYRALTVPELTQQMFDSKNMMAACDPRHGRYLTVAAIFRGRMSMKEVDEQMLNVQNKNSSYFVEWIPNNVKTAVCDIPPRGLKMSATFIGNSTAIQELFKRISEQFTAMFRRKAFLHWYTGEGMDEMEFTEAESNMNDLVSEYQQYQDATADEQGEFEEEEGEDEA

Row | Molecule | Inhibition of microtubule nucleation/assembly from purified centrosomes (in words) [1] | Effect of synthetic peptide on centrosome-dependent microtubule nucleation (in words) [1] | further results
1 | GST-PN2-3C: GST fusion with PN2-3C, amino acid residues 369-422 of CPAP (non-helical motif) (AKPKQPFLKRGEGLARFTNAKSKFQKGKESKLVTNQSTSEDQPLFKMDRQQLQR; also: GST tag, terminus not given here; UniProt Q9HC77 369-422, looked up, fragment) | less inhibition |  | 
2 | peptide C2: synthetic peptide, amino acid residues 393-423 of CPAP (SEQ ID NO:1) (QKGKESKLVTNQSTSEDQPLFKMDRQQLQRK; listed as Homo sapiens) |  | No effect | 
3 | peptide C1: synthetic peptide, amino acid residues 363-392 of CPAP (SEQ ID NO:1) (GPLPIKAKPKQPFLKRGEGLARFTNAKSKF; listed as Homo sapiens) |  | No effect | 
4 | peptide N: synthetic peptide, amino acid residues 310-329 of CPAP (SEQ ID NO:1) (LQKHDDSSEVANIEERPIKA; listed as Homo sapiens) |  | No effect | 
5 | GFP-PN2-1: GFP-tagged CPAP residues 132-190 (EFKEGAYKDPLFKKLEQLKEVQQKKQEQLKRQQLEQLQRLMEEQEKLLTMVSGQCTLPG; also: GFP tag, terminus not given here; UniProt Q9HC77 132-190, looked up, fragment) |  |  | Inhibition of microtubule reassembly in cold-treated mitotic cells (in words) (HeLa cells): no significant inhibition
6 | peptide H2: synthetic peptide, amino acid residues 327-362 of CPAP (SEQ ID NO:1) (IKAAIGERKQTFEDYLEEQIQLEEQELKQKQLKEAE; listed as Homo sapiens) |  | No effect | 
7 | B1 | showed the ability to inhibit microtubule assembly |  | 
8 | B2 | showed the ability to inhibit microtubule assembly |  | 
9 | B3 | inhibited |  | 
